{"source": "paper PMC8786796", "key": {"[1]": {"target": "TLR5 (endogenous, on Jurkat JE6-1 NF-κB::eGFP reporter cells) (human (endogenous in Jurkat JE6-1)) (UniProt O60602)", "sequence (O60602 21-858)": "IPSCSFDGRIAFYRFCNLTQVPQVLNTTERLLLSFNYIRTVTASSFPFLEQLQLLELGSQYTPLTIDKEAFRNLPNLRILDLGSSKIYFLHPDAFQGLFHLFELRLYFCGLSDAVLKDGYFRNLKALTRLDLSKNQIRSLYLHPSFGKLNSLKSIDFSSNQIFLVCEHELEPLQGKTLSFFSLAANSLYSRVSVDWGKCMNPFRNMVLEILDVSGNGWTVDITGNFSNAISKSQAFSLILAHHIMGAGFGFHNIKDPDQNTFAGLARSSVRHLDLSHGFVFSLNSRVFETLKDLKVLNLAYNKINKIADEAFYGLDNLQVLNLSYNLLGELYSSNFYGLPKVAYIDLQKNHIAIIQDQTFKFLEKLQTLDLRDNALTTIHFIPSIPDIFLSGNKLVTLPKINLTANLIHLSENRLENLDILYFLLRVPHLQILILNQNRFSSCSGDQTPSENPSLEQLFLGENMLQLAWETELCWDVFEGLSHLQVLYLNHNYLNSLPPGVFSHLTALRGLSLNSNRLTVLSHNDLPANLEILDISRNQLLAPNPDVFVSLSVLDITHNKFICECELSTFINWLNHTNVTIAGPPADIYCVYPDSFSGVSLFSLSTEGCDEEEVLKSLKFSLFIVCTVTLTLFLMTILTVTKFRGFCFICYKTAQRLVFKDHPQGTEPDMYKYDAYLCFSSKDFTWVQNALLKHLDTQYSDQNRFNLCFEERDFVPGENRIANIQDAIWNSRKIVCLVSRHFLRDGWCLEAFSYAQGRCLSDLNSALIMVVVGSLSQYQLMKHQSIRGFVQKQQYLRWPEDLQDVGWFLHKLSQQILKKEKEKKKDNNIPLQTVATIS"}, "[2]": {"target": "TLR5 (endogenous, on Jurkat JE6-1 NF-κB::eGFP reporter cells) (human (endogenous in Jurkat JE6-1)) (UniProt O60602)", "remark": "listed apart in the source"}}}
{"substance": "flagellin purified from S. typhimurium (Fla-ST standard and Fla-ST ultrapure) (from UniProt P06179 1-495) (ligand)", "values": [{"measurement": "NF-κB::eGFP expression in Jurkat JE6-1 reporter cells (endogenous TLR5), flagellin titrated, 24 h, flow cytometry; lowest concentration giving detectable eGFP", "setting": "[1]", "value": "< 100", "unit": "pg/mL"}, {"measurement": "limit of detection (concentration giving a 1.5-fold increase of eGFP) in JE6-1 TLR5 NF-κB::eGFP reporter cells, flagellin titrated", "setting": "[2]", "value": 10, "unit": "pg/mL"}]}
